These results are taken from patent US20220010018A1 (ALBERT EINSTEIN COLLEGE OF MEDICINE, published 2022).

A word on the Kd: it is the constant that tells how readily two partners part at equilibrium. Read a high Kd as weaker binding. A word on the koff: it is the first-order rate constant of dissociation. Broadly, the kon is the second-order rate constant of association.

The target in test [1] is T1, Human B7-H3 (human, UniProt Q5ZPR3 29-461, limits assumed).
T1 construct: also called human B7-H3 (SPR antigen)
T1 sequence: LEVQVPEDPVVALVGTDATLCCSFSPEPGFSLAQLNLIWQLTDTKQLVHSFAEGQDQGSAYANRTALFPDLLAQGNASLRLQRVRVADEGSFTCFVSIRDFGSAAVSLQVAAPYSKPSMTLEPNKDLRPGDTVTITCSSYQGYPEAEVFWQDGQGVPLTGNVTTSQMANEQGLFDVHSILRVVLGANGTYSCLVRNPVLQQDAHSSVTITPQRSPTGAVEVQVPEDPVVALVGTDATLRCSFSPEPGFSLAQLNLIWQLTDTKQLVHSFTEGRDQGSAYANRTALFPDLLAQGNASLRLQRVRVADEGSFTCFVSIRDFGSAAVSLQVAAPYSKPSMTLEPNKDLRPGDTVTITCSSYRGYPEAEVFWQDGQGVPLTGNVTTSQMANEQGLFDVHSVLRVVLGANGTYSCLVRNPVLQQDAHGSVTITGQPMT
Put plainly: Surface Plasmon Resonance.

For test [2], the target named is T2, Mouse B7-H3 (mouse, UniProt Q8VE98 29-244, limits assumed).
T2 construct: The construct used in SPR is not described; also called mouse B7-H3 (SPR antigen)
T2 sequence (looked up): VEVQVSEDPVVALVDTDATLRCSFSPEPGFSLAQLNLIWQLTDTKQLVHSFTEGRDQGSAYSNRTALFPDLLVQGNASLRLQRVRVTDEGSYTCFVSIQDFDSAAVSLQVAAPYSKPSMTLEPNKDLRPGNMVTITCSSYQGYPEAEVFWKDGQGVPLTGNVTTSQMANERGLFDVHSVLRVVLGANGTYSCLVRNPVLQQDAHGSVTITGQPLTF
Briefly: Surface Plasmon Resonance.

B1: monoclonal antibody 8B12 (antibody, IgG3, V domains shown)
VH: QVQLQQPGAELVKPGASVKMSCKASGYTFTSYWITWVKQRPGQGLEWIGDIYPGSGSTNYNEKFKSKATLTVDTSSSTAYMQLSSLTSEDSAVYYCARGGTRFSPFAYWGQGTLVTVSA
VL: DVLMTQTPLSLPVSLGDQASISCRSSQSIVHSNGNTYLEWYLQKPGQSPKLLIYKVSNRFSGVPDRFSGSGSGTDFTLKISRVEAEDLGVYYCFQGSHVPWTFGGGTKLEIKR
notes: Residue limits come from CLM-00006; also called mAb 8B12
For the molecule B1, in test [1], the affinity, expressed as Kd, was 0.3 nM; the koff came out at 0.000459 s⁻¹; the kon turned out to be 1.51e+06 M⁻¹ s⁻¹. In test [2], this molecule gave a Kd of 4.01 nM, a koff of 0.00237 s⁻¹ and a kon of 592000 M⁻¹ s⁻¹.

B2: monoclonal antibody 12B4 (antibody, IgG2b, V domains shown)
VH: QVQLQQPGAELVKPGASVKLSCKASGYTFTSYWMHWVKQRPGQGLEWIGMIHPNSGSTNYNEKFKSKATLTVDKSSSTAYMQLSSLTSEDSAVYYCARYYYGSSYAMDYWGQGTSVTVS
VL: QIVLTQSPAIMSASPGEKVTITCSASSSVSYMHWFQQKPGTSPKLWIYSTSNLASGVPARFSGSGSGTSYSLTISRMEAEDAATYYCQQRSSYPYTFGGGTKLEIKR
notes: Residue limits come from CLM-00006; also called mAb 12B4
In test [1], B2 showed a Kd of 8.23 nM, a koff of 0.00509 s⁻¹ and a kon of 618000 M⁻¹ s⁻¹. In test [2], the Kd was found to be 15.4 nM, the koff is 0.0184 s⁻¹ and the kon came out at 1.19e+06 M⁻¹ s⁻¹.
